From patent US8273705B2, “Conversion of apoptotic proteins” (The Burnham Institute, priority 2002, dated 2012)
“Also recorded” adds a separate entry of the source.

B1: TR3/ΔDBD/Δ471-488: TR3/ΔDBD with eighteen amino acids from 471 to 488 in the DC1 region deleted (protein)
chain: MPCIQAQYGTPAPSPGPRDHLASDPLTPEFIKPTMDLASPEAAPAAPTALPSFSTFMDGYTGEFDTFLYQLPGTVQPCSSASSSASSTSSSSATSPASASFKFEDFQVYGCYPGPLSGPVDEALSSSGSDYYGSPCSAPSPSTPSFQPPQLSPWDGSFGHFSPSQTYLVLFSRSLHSLLVDVPAFACLSALVLITDRHGLQEPRRVEELQNRIASCLKEHVAAVAGEPQPASCLSRLLGKLPELRTLCTQGLQRIFYLKLEDLVPPPPIIDKIFMDTLPF
modifications: left off: large carriers; small tags and cut ends
notes: TR3/ΔDBD with eighteen amino acids from 471 to 488 in the DC1 region deleted
B2: TR3/ΔDBD: TR3 mutant with the DNA binding domain removed; used as GFP fusion (protein)
chain: MPCIQAQYGTPAPSPGPRDHLASDPLTPEFIKPTMDLASPEAAPAAPTALPSFSTFMDGYTGEFDTFLYQLPGTVQPCSSASSSASSTSSSSATSPASASFKFEDFQVYGCYPGPLSGPVDEALSSSGSDYYGSPCSAPSPSTPSFQPPQLSPWDGSFGHFSPSQTYLVLHRLQCARGFGDWIDSILAFSRSLHSLLVDVPAFACLSALVLITDRHGLQEPRRVEELQNRIASCLKEHVAAVAGEPQPASCLSRLLGKLPELRTLCTQGLQRIFYLKLEDLVPPPPIIDKIFMDTLPF
modifications: left off: large carriers; small tags and cut ends
notes: used as GFP fusion

Experiments:
Bcl-2 = target: T1, Bcl-2 (Homo sapiens, UniProt P10415); experiment: Co-IP assay of TR3 mutants with Bcl-2 in HEK293T cells; type: binding; details: GFP fusions co-transfected with Bcl-2 in HEK293T cells
T1 construct: expressed in transfected cells; host or cells: HEK293T
T1 sequence (P10415 whole entry, the tested form may be a part): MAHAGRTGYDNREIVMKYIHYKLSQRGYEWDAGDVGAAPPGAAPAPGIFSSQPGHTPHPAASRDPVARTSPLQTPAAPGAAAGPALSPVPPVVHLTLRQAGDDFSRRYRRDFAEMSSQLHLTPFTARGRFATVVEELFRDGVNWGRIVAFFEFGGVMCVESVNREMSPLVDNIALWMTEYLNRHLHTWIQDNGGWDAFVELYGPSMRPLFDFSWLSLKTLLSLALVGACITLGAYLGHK
Method: TR3/Bcl-2 interaction assays—Reporter gene assays using NurRE-tk-CAT in CV-1 cells, and GST pull-down assay were described previously (Li, et al. 2000 Science 289, 1159-1164). For the mammalian two-hybrid assays, CV-1 cells were co-transfected with pcDNA-Gal4TAD-TR3 or pcDNA-Gal4TAD-TR3/ΔDBD and pcDNA-Gal4DBD-Bcl-2/ΔTM along with a luciferase reporter gene driven by four copies of the Gal4-binding site. The cells were harvested and reporter gene activity was measured. For Co-IP assays, HEK293T cells were transiently transfected with various expression plasmids using a modified calcium phosphate precipitation method (Wu et al, 1997) in the presence of caspase inhibitors (zVAD-fmk) to prevent degradation of TR3 protein due to apoptosis. Cells were suspended in lysis buffer (50 mM Tris-HCl, PH7.4; 150 mM NaCl; 20 mM EDTA; 1% NP-40; 1 mM PMSF; 50 μg/ml Leupeptin; […]; 0.1 mM Na3VO4; and 1 mM DTT). Cells extracts were cleared by incubation with the Protein A/G plus Agarose beads (Santa Cruz) and then incubated with appropriate antibody and 30 μl of Protein A or G plus Agarose beads overnight at 4° C. Beads were then washed and boiled in Laemmli gel-loading solution before performing SDS-PAGE/immunoblotting using the following polyclonal or monoclonal antibodies: monoclonal mouse anti-GFP (Medical and Biological Laboratories), monoclonal mouse anti-HA (Roche Molecular Biochemicals), monoclonal mouse anti-FLAG (Sigma), monoclonal mouse anti-Myc (Santa Cruz), polyclonal rabbit anti-TR3 (Active Motif), or monoclonal mouse anti-Bcl-2 (Santa Cruz). Immunoreactive products were detected by chemiluminescence with an enhanced chemiluminescence system (ECL) (Amersham).
TR3/ΔDBD, which can constitutively reside on mitochondria, was also analyzed by co-immunoprecipitation (Co-IP) assay for its interaction with Bcl-2. GFP-TR3/ΔDBD was transfected into human embryonic kidney cell line 293T alone or together with a Bcl-2 expression vector. The expressed GFP-TR3/ΔDBD mutant protein as then precipitated by using either anti-Bcl-2 antibody or control IgG and detected by western blotting using anti-GFP antibody. The same membranes were also blotted with anti-Bcl-2 antibody to determine precipitation specificity and efficiency. Input represents 10% of total cell extract used in the precipitation assays.
Several TR3 mutants were analyzed to determine the domain of TR3 which interacts with Bcl-2. The TR3 mutants are schematically represented in FIG. 1. A Co-IP assay was performed, as described above. […] Cell extracts were prepared and incubated with anti-Bcl-2 antibody or control IgG for Co-IP assays. Lysates were immunoprecipitated by using either polyclonal rabbit anti-Bcl-2 antibody or control IgG. Cell lysates and immunoprecipitates were examined by immunoblotting using anti-GFP antibody. The same membranes were also blotted with anti-Bcl-2 antibody (Santa Cruz) to determine IP specificity and efficiency. […] This Co-IP was specific because Bcl-2 co-transfection was necessary. […] Thus, the DC1 region in the TR3 LBD is involved in the Bcl-2 interaction.
To further determine the interaction of DC1 with Bcl-2, a region of hydrophobic amino acids ([…]—SEQ ID NO: 1) was deleted from TR3/ΔDBD, and the resulting mutant (TR3/ΔDBD/Δ471-488) was analyzed for its interaction with Bcl-2. TR3/ΔDBD/[…], with eighteen amino acids from 471 to 488 in the DC1 region deleted from TR3/ΔDBD, TR3/ΔDBD/I483A (with Ile483 replaced with Ala) and TR3/ΔDBD/L487A (with Leu487 replaced with Ala) were analyzed for their interaction with Bcl-2 by in vivo Co-IP assay as described above.

[1] = system: NCI-H460 lung cancer cells; experiment: GFP-TR3/ΔDBD mitochondrial targeting in NCI-H460 lung cancer cells; type: cell-based; details: transient transfection
Method: Subcellular localization assays—Cells were seeded onto cover-slips in 6-well plates overnight, then transiently transfected with GFP-fusion expression plasmids. After 16 hours, cells were washed with PBS and fixed in 4% paraformaldehyde. For mitochondrial staining, cells were then incubated with anti-Hsp60 goat IgG (Santa Cruz, USA), followed by anti-goat IgG conjugated with Cy3 (Sigma). For cyt c staining, cells were incubated with monoclonal anti-cyt c IgG (PharMingen), followed by anti-mouse IgG conjugated with Cy5 (Amersham). Fluorescent images were collected and analyzed using a MRC-1024 MP laser-scanning confocal microscope (Bio-Rad). Subcellular fractionation assays were performed as described (Li, et al. 2000 Science 289:1159-1164). Briefly, cells (1×10^7 cells) suspended in 0.5 ml hypotonic buffer (5 mM Tris-HCl, pH 7.4, 5 mM KCl, 1.5 mM MgCl2, 0.1 mM EGTA, pH 8.0, and 1 mM DTT) were homogenized and cell extracts were centrifuged at 500×g for 5 min. The resulting supernatant was centrifuged at 10,000×g for 30 min at 4° C. to obtain the HM fraction. […]
Given the results of these studies, it was desirable to determine whether TR3 exerts its apoptotic effect in lung cancer cells as in prostate cancer cells by targeting to mitochondria. […] The cells were stained for mitochondria (Hsp60) and cytochrome c (Cyt c), and analyzed by confocal microscopy. […]

Calu-6 lung cancer cells = experiment: Mitochondrial targeting and cytochrome c release in Calu-6 cells; type: cell-based
From the text: TR3/ΔDBD targets mitochondria in NCI-H460 cells, which express high levels of Bcl-2 (Lu et al. 2001 Cancer Chemother Pharmacol 47:170-178). To determine whether Bcl-2 is involved in mitochondrial targeting of TR3, GFP-TR3/ΔDBD was transfected into Calu-6 lung cancer cells, which express low levels of Bcl-2. GFP-TR3/ΔDBD and Bcl-2 were transfected into Calu-6 lung cancer cells alone or together.

Row | Molecule | interaction with Bcl-2 (Co-IP) (Bcl-2) | GFP-TR3/ΔDBD subcellular localization [1] | subcellular distribution (Calu-6 lung cancer cells; Calu-6, Bcl-2 co-transfected) | cytochrome c release (Calu-6 lung cancer cells; Calu-6, Bcl-2 cotransfected) | subcellular distribution (Calu-6 lung cancer cells; Calu-6, alone)
1 | B1 | significantly impaired the interaction; also recorded: very weak interaction | – | – | – | –
2 | B2 | co-precipitated with Bcl-2 | targeted to mitochondria | targeted mitochondria | released from mitochondria | diffusely distributed
